Experiment [1] deals with HLA-C*07:02. The experiment can be described thus: IEDB peptide-MHC binding, purified MHC/direct/fluorescence; filed as Kd, often an IC50 or EC50 that approximates it; ≥ and ≤ were set here for values at or beyond the usual limits of such assays. Particulars: source organism: Homo sapiens.
The target in experiment [2] is HLA-B*40:02. The experiment can be described thus: IEDB peptide-MHC binding, purified MHC/competitive/fluorescence; ≥ and ≤ were set here for values at or beyond the usual limits of such assays. Particulars: source organism: Homo sapiens.
Experiment [3] has as its target HLA-A*24:02. The description is as above. Particulars: source organism: Homo sapiens.
The target in experiment [4] is HLA-B*07:02. The experiment in a line: IEDB peptide-MHC binding, purified MHC/competitive/fluorescence; filed as Kd, often an IC50 or EC50 that approximates it; ≥ and ≤ were set here for values at or beyond the usual limits of such assays. Particulars: source organism: Corynebacterium glutamicum ATCC 13032.
The target of experiment [5] is HLA-B*58:01. The experiment is described as above. Particulars: source organism: Corynebacterium glutamicum ATCC 13032.
Experiment [6] concerns the target HLA-B*15:01. Described as above. Particulars: source organism: Corynebacterium glutamicum ATCC 13032.
The target in experiment [7] is HLA-A*03:01. Described as above.
Experiment [8] has as its target HLA-B*40:01. Described as above. Conditions: source organism: Corynebacterium glutamicum ATCC 13032.
For experiment [9], the target named is HLA-A*01:01. Described as above. Particulars: source organism: Corynebacterium glutamicum ATCC 13032.
In experiment [10] the target is HLA-B*27:05. The experiment is described as above. Conditions: source organism: Corynebacterium glutamicum ATCC 13032.
Experiment [11] concerns the target HLA-A*24:02. The description is as above. Particulars: source organism: Corynebacterium glutamicum ATCC 13032.
Experiment [12] deals with HLA-A*02:01. The experiment is described as above.
Experiment [13] concerns the target HLA-A*02:19. The experiment in a line: IEDB peptide-MHC binding, purified MHC/direct/fluorescence; filed as Kd, often an IC50 or EC50 that approximates it; ≥ and ≤ were set here for values at or beyond the usual limits of such assays. Conditions: source organism: Zaire ebolavirus.
The target of experiment [14] is HLA-B*15:01. The description is as above. Particulars: source organism: Sudan ebolavirus - Maleo (1979).
The target in experiment [15] is HLA-A*02:16. The experiment is described as above. Conditions: source organism: Zaire ebolavirus.
Experiment [16] addresses HLA-A*03:01. The experiment is described as above. Conditions: source organism: Zaire ebolavirus.
The target of experiment [17] is HLA-A*02:03. Described as above. Particulars: source organism: Zaire ebolavirus.
For experiment [18], the target named is HLA-A*68:02. The description is as above. Particulars: source organism: Zaire ebolavirus.
The target of experiment [19] is HLA-A*02:12. Described as above. Particulars: source organism: Zaire ebolavirus.
Experiment [20] concerns the target HLA-A*02:11. The description is as above. Conditions: source organism: Zaire ebolavirus.
Experiment [21] concerns the target HLA-B*27:03. The experiment can be described thus: IEDB peptide-MHC binding, purified MHC/competitive/fluorescence; filed as Kd, often an IC50 or EC50 that approximates it; ≥ and ≤ were set here for values at or beyond the usual limits of such assays. Particulars: source organism: Zaire ebolavirus.
For experiment [22], the target named is HLA-B*57:01. The description is as above. Conditions: source organism: Zaire ebolavirus.
Experiment [23] has as its target HLA-B*39:01. The description is as above. Particulars: source organism: Zaire ebolavirus.
Experiment [24] concerns the target HLA-B*35:01. The experiment is described as above. Particulars: source organism: Zaire ebolavirus.
Experiment [25] deals with HLA-B*51:01. The description is as above. Conditions: source organism: Zaire ebolavirus.
Experiment [26] deals with HLA-A*69:01. The experiment is described as above. Particulars: source organism: Zaire ebolavirus.
The target of experiment [27] is HLA-A*26:01. The experiment is described as above. Particulars: source organism: Zaire ebolavirus.
For experiment [28], the target named is HLA-A*25:01. The experiment is described as above. Conditions: source organism: Zaire ebolavirus.
In experiment [29] the target is HLA-B*46:01. The experiment can be described thus: IEDB peptide-MHC binding, purified MHC/direct/fluorescence; filed as Kd, often an IC50 or EC50 that approximates it; ≥ and ≤ were set here for values at or beyond the usual limits of such assays. Particulars: source organism: dengue virus type 4.
Experiment [30] concerns the target HLA-B*15:02. Described as above. Particulars: source organism: dengue virus type 4.
In experiment [31] the target is HLA-B*57:01. The experiment in a line: IEDB peptide-MHC binding, purified MHC/competitive/radioactivity; filed as Kd, often an IC50 or EC50 that approximates it; ≥ and ≤ were set here for values at or beyond the usual limits of such assays. Particulars: source organism: Dengue virus 4 Philippines/H241/1956.
For experiment [32], the target named is HLA-A*30:02. The experiment is described as above. Conditions: source organism: Dengue virus 4 Philippines/H241/1956.
The target of experiment [33] is HLA-A*01:01. The description is as above. Particulars: source organism: Dengue virus 4 Philippines/H241/1956.
The target of experiment [34] is HLA-A*32:01. The description is as above. Conditions: source organism: Dengue virus 4 Philippines/H241/1956.
In experiment [35] the target is HLA-B*07:02. The experiment in a line: IEDB peptide-MHC binding, purified MHC/competitive/radioactivity; ≥ and ≤ were set here for values at or beyond the usual limits of such assays. Particulars: source organism: Toxoplasma gondii.
Experiment [36] deals with HLA-A*02:01. The experiment is described as above. Particulars: source organism: Toxoplasma gondii.
In experiment [37] the target is HLA-A*11:01. The description is as above. Particulars: source organism: Toxoplasma gondii.
In experiment [38] the target is HLA-A*31:01. The experiment can be described thus: IEDB peptide-MHC binding, purified MHC/competitive/fluorescence; filed as Kd, often an IC50 or EC50 that approximates it; ≥ and ≤ were set here for values at or beyond the usual limits of such assays. Particulars: source organism: Shigella flexneri 5 str. 8401.
In experiment [39] the target is HLA-B*15:42. The description is as above. Particulars: source organism: Shigella flexneri 5 str. 8401.
For experiment [40], the target named is HLA-B*83:01. The experiment is described as above. Conditions: source organism: Shigella flexneri 5 str. 8401.
Experiment [41] has as its target HLA-A*68:23. Described as above. Conditions: source organism: Shigella flexneri 5 str. 8401.
Experiment [42] deals with HLA-B*45:06. The description is as above. Conditions: source organism: Shigella flexneri 5 str. 8401.
Where [43] appears, read: source organism: Corynebacterium glutamicum ATCC 13032.

Consider FYYNAFHWAI, for which, in experiment [1], the Kd was determined as 0.182 µM. Also, the figures for the concentration for half-maximal inhibition (IC50) in experiment [2] and in experiment [3] were at least 20 µM and 0.305 µM, respectively.
For MSSAAHLLY, the Kd in experiment [4] is at least 20 µM; in [5], 0.0061 µM; in experiment [6] it was 0.0465 µM; in experiment [7] (setting [43]) it was 0.161 µM; in [8] it was at least 20 µM; in [9] it was 0.0141 µM. Moreover, the Kd in experiment [10], in experiment [11] and in experiment [12] (setting [43]) was at least 20 µM each time.
In the case of NFFHASLAY, the Kd in experiment [13] was at least 20 µM; in experiment [14], 0.0641 µM; in experiment [15], at least 20 µM; in [16] it was at least 20 µM; in [17], at least 20 µM; in experiment [18] it was at least 20 µM. Moreover, the Kd in [19] was at least 20 µM; in experiment [20], at least 20 µM; in experiment [21], at least 20 µM; in experiment [22], at least 20 µM; in experiment [23], at least 20 µM; in experiment [24] it was 0.006 µM. Further, the Kd in [25], in experiment [26], in [12] (source organism: Zaire ebolavirus), in [27] and in [28] was at least 20 µM in each case.
As to RTWAYHGSY, the Kd in experiment [29] was at least 20 µM; in [30], at least 20 µM; in experiment [31], 0.0158 µM; in experiment [32], 0.00019 µM; in experiment [33] it was 1.28 µM; in experiment [34], 0.00146 µM.
Turning to STFWPCLLR, the IC50 is at least 50 µM in experiment [35], 27 µM in experiment [36] and 0.0093 µM in experiment [37].
For TTIPTNLFR, the Kd is 3 µM in experiment [7] (source organism: Shigella flexneri 5 str. 8401); 0.121 µM in [38]; at least 5 µM in experiment [39]; at least 5 µM in [40]; 0.332 µM in experiment [41]; at least 5 µM in experiment [42].
